According to the RNAGym collection of RNA variant scans (doi:10.7554/elife.80360):

B1: CPEB3 Ribozyme (parent)
chain: GGGGGCCACAGCAGAAGCGUUCACGUCGCGGCCCCUGUCAGAUUCUGGUGAAUCUGCGAAUUCUGCUGU

Variants of: B1
Assay: self-cleavage, relative activity (ratio to wild type); higher = more cleavage; co-transcriptional
With A8U C63U the self-cleavage was 1.03.
Work on A8U C63G yielded a self-cleavage of 0.782.
For A8U G30U, the self-cleavage was 0.519.
Work on C9A C22A yielded a self-cleavage of 0.251.
C9A C22G showed a self-cleavage of 0.181.
Work on C9A C22U yielded a self-cleavage of 0.424.
In the case of A8U G14C, the self-cleavage is reported as 0.593.
Variant C9A C27A has a self-cleavage of 0.798.
C9A C39U showed a self-cleavage of 0.973.
C7G G47C showed a self-cleavage of 0.604.
Variant C7G G47U has a self-cleavage of 0.636.
In the case of A8C C66A, the self-cleavage is reported as 0.818.
C7G G48C gave a self-cleavage of 0.502.
C7G U46G showed a self-cleavage of 0.455.
In the case of A8U U64C, the self-cleavage is reported as 0.953.
Variant A8U U64G has a self-cleavage of 0.87.
In the case of C9A G14A, the self-cleavage is reported as 0.725.
With C9A G14U the self-cleavage was 0.767.
Work on A8U A15C yielded a self-cleavage of 0.812.
C9A A10C gave a self-cleavage of 1.02.
With C9A A10G the self-cleavage was 1.01.
C9A G37U gave a self-cleavage of 0.401.
A8C C54A showed a self-cleavage of 0.915.
Variant C9A C24U has a self-cleavage of 0.934.
For C9A C24A, the self-cleavage was 0.891.
For C7U U20G, the self-cleavage was 0.17.
A8C U55C gave a self-cleavage of 0.891.
For A8G U38A, the self-cleavage was 0.662.
In the case of A8G U38G, the self-cleavage is reported as 0.0785.
A8C G68A showed a self-cleavage of 1.02.
Work on C7U G37A yielded a self-cleavage of 0.187.
With C7U G37C the self-cleavage was 0.152.
Variant C7U U53C has a self-cleavage of 0.784.
A8U C22A showed a self-cleavage of 0.154.
C7G G58A showed a self-cleavage of 0.281.
C7U U43G gave a self-cleavage of 0.757.
Work on A8C G41C yielded a self-cleavage of 0.757.
C9A U21A gave a self-cleavage of 1.01.
C9A C32A showed a self-cleavage of 1.
In the case of C9A C32G, the self-cleavage is reported as 0.843.
With C7U G28A the self-cleavage was 0.123.
Work on A8G G58U yielded a self-cleavage of 0.92.
Work on A8G G58A yielded a self-cleavage of 0.867.
In the case of A8C A13G, the self-cleavage is reported as 0.987.
In the case of A8C A13U, the self-cleavage is reported as 0.849.
Work on C9A C29U yielded a self-cleavage of 0.992.
With C9A C29A the self-cleavage was 0.86.
C7U U49A showed a self-cleavage of 0.957.
Variant A8C C33U has a self-cleavage of 1.
Work on A8U G58A yielded a self-cleavage of 0.995.
Variant A8C A51C has a self-cleavage of 0.981.
For A8C A51G, the self-cleavage was 0.962.
With A8G A13C the self-cleavage was 0.126.
Work on A8G A13G yielded a self-cleavage of 0.192.
Work on C7G U43C yielded a self-cleavage of 0.231.
Variant A8U C35G has a self-cleavage of 0.435.
For A8C U67G, the self-cleavage was 0.975.
Variant A8C U67C has a self-cleavage of 1.
A8G A15G gave a self-cleavage of 0.777.
A8U G28U showed a self-cleavage of 0.0893.
A8U G28A gave a self-cleavage of 0.141.
Variant C7U G30A has a self-cleavage of 0.957.
C7U G30C gave a self-cleavage of 0.608.
In the case of C7U G30U, the self-cleavage is reported as 0.814.
In the case of A8G U69C, the self-cleavage is reported as 1.05.
With A8G U69A the self-cleavage was 0.928.
With C7U G25U the self-cleavage was 0.089.
A8U C45A gave a self-cleavage of 1.01.
Variant A8U C45G has a self-cleavage of 0.958.
Variant A8C U26C has a self-cleavage of 0.992.
Variant A8C U26A has a self-cleavage of 0.82.
Variant A8C U26G has a self-cleavage of 0.835.
In the case of C9A U43C, the self-cleavage is reported as 1.03.
Work on C9A A16C yielded a self-cleavage of 0.56.
Variant C9A A16G has a self-cleavage of 0.992.
With C9A G47C the self-cleavage was 1.
A8C U61A gave a self-cleavage of 0.913.
In the case of A8G G50A, the self-cleavage is reported as 0.868.
Work on A8G G50U yielded a self-cleavage of 0.877.
Variant C7U G31A has a self-cleavage of 0.496.
For C7G U26G, the self-cleavage was 0.233.
Work on C7G U26A yielded a self-cleavage of 0.103.
C7G U49C gave a self-cleavage of 0.491.
C7G U49A gave a self-cleavage of 0.444.
C7G U38C gave a self-cleavage of 0.174.
Work on C7G U38G yielded a self-cleavage of 0.068.
In the case of C7G U38A, the self-cleavage is reported as 0.264.
A8G U21G gave a self-cleavage of 0.199.
For A8G U21A, the self-cleavage was 0.833.
With A8G U62G the self-cleavage was 0.367.
A8U G17A gave a self-cleavage of 0.388.
Variant A8U G11C has a self-cleavage of 0.873.
Work on C7U G14C yielded a self-cleavage of 0.417.
C9A U38A gave a self-cleavage of 0.989.
C9A U38G gave a self-cleavage of 0.152.
With A8C G58U the self-cleavage was 1.03.
A8C G58C showed a self-cleavage of 0.963.
Work on A8C U46G yielded a self-cleavage of 0.982.
For C7G G41C, the self-cleavage was 0.121.
With C7G G41A the self-cleavage was 0.131.
With C7U A52U the self-cleavage was 0.91.
Variant C7U A52G has a self-cleavage of 0.957.
C9A G65U showed a self-cleavage of 0.844.
With C9A G65A the self-cleavage was 0.955.
In the case of A8U U49A, the self-cleavage is reported as 0.98.
For A8U U49C, the self-cleavage was 1.02.
A8C C24A showed a self-cleavage of 0.707.
For A8G C9A, the self-cleavage was 0.994.
Variant C7G G56U has a self-cleavage of 0.177.
In the case of C9A C18G, the self-cleavage is reported as 0.26.
For A8U G56C, the self-cleavage was 0.761.
Variant A8G A51G has a self-cleavage of 0.901.
Work on A8G A51U yielded a self-cleavage of 0.772.
Work on A8G G37A yielded a self-cleavage of 0.128.
For A8G G37U, the self-cleavage was 0.134.
In the case of A8U U61C, the self-cleavage is reported as 0.808.
Work on A8G U67A yielded a self-cleavage of 0.59.
A8C C63G gave a self-cleavage of 0.734.
With C9A C45G the self-cleavage was 1.03.
Variant A8U U21A has a self-cleavage of 0.994.
For A8U C9A, the self-cleavage was 1.03.
With A8C C32A the self-cleavage was 0.784.
Variant A8C C18A has a self-cleavage of 0.152.
Variant A8C A15G has a self-cleavage of 0.995.
In the case of C7U C32U, the self-cleavage is reported as 0.984.
Work on C9A A52C yielded a self-cleavage of 1.01.
Work on C9A A52G yielded a self-cleavage of 1.02.
In the case of C9A A52U, the self-cleavage is reported as 1.03.
A8U A59G showed a self-cleavage of 1.
Work on A8G C34U yielded a self-cleavage of 0.952.
Work on A8G C34A yielded a self-cleavage of 0.734.
With A8G G47A the self-cleavage was 1.
Work on C7U G47U yielded a self-cleavage of 1.02.
Variant A8G A16G has a self-cleavage of 0.458.
For A8G A16C, the self-cleavage was 0.0896.
In the case of A8G C39U, the self-cleavage is reported as 0.448.
A8C C27U showed a self-cleavage of 0.342.
Variant C7U U64G has a self-cleavage of 0.899.
A8G G19A gave a self-cleavage of 0.0612.
For A8U C33A, the self-cleavage was 0.935.
A8U C33U gave a self-cleavage of 0.996.
With A8C G19U the self-cleavage was 0.462.
A8C G19C showed a self-cleavage of 0.107.
C7U G50A gave a self-cleavage of 0.996.
In the case of A8U C29A, the self-cleavage is reported as 0.269.
A8C G47U showed a self-cleavage of 1.04.
A8C G47C showed a self-cleavage of 1.03.
Variant C7U A16G has a self-cleavage of 0.908.
In the case of A8U G41A, the self-cleavage is reported as 0.789.
Variant A8C G31A has a self-cleavage of 0.888.
C9A U67A gave a self-cleavage of 1.03.
Variant A8C G56U has a self-cleavage of 0.908.
C9A U20C gave a self-cleavage of 0.197.
Work on A8C U38G yielded a self-cleavage of 0.245.
Work on A8C U38A yielded a self-cleavage of 0.897.
With A8G G65U the self-cleavage was 0.223.
Work on A8G G65C yielded a self-cleavage of 0.424.
With C7U U21C the self-cleavage was 0.688.
With C9A U69A the self-cleavage was 1.06.
A8U C12U gave a self-cleavage of 1.05.
A8U A23C showed a self-cleavage of 0.944.
Variant C7U C35A has a self-cleavage of 0.194.
With C7U C35G the self-cleavage was 0.28.
A8C A40C gave a self-cleavage of 0.639.
With A8C G65C the self-cleavage was 0.635.
A8U U62A showed a self-cleavage of 0.97.
For A8U U62G, the self-cleavage was 0.945.
